Laboratory results published in the DeepSol protein solubility set.

Assay: soluble on expression in E. coli; label from the status in PepcDB or PDB records

| Sequence | soluble on expression in E. coli |
| --- | --- |
| MGSDKIHHHHHHMRRSSLKEPGPASAIRTENFTRGMGEVPAALGKVCRGGSHAKAHERGLIMLISQILDDAETIRVVARNGGKTRIINGARSVYSLAMEAARTGVGLATLIERKGLGETVDLDAAYKKGRLLSPINHPDPAHLHLTGTGLTHLGSAATRDSMHKKLSSADGEEQLTDSMKMFRMGLEGGKPAKGQVGVQPEWFYKGNGTMAVAPGAALLSPAFAKDAGEEPEIAGIYVIGDDGAPFRVGFTLSNEFSDHVTERVNYLFLAHSKLRNASFGPEILIGDLPSDIRGTSRIVRDGETLWEKPFLSGEANMSHTIANLEHHHFKYSAFRQPGDVHVHMFGTATLSFADGVKTEAGDVFEIEAGDFGLPLRNPLEIEKPVKVAVKAL | not soluble |
| MPHFTKRPAQPQAALAEAAGLRWLAEASSAVAQVVSADAEQITTVGVETQLPTPDAAFKAGEELARIHLAGAPAFGCPPAGWAGLNYIGTQGQACLSTPTWGVFYSQQRVLPFARRARRRNHLTEHALWVVEAACDLISELPDDVPPARIHGDLWFGNLLFGTDGPVFIDPAAHGGHPETDLAMLDVFGAPYLDEIREGYLSINPLPDGWRERTPMHQLHPLAVHAASHGPSYGVELLHAAKATLKLLDLEHHHHHH | not soluble |
| APTSSNDTGKTVVAVTACPTGIAHTYMAAEKLQETANKLGVRIKVETNGSRGVENRLTDKEIAEADGVIIAADVQVDMPRFDGKHLIAKPVAAGIHKPEELIKEAISGNAPVYKAESGSEATEST | not soluble |
| MSLTTPLYPIILAGGSGTRLWPLSRQNFPKQFLKLNGELSLIQQTMKRAMGLPGNQTIIVSNDAHYFICQDQLQDFNAQTTYLLEPCARNTAPAIACAAHYLANTVGKDAVMLVLPSDHWIADDEIWLAAMLEGGQFASENNAIVTFGIKPDSPKTGYGYIEAGTTLSSDIKQVLSFREKPDAHTAAQFVSKGNYFWNSGMFICRAGVYLEELEQFETDIYQFSQQALTLAQHHHDFLRLDLDCFSQCKEESIDYAIMEKTDKAVVIPISIQWSDLGCWTAVADANKQDEQGNTLIGNVIAQDSHNCLINSEELLVTTVGIQDQIIVATSDAVLVADKRYSQQVKDLVHSLRKDHPHLTQDHQRVPRPWGYYEVLAEGTSFKVKRLMVKPGAKLSLQTHQHRAEHWVIVGGEAEVVNGNNTFRLSKNQSTYIPKNALHRLSNPHNEPLYVIEVQSGSYLGEDDIKRFDDIYLRKEVEEGHHHHHH | soluble |
| MIRIGHGFDVHRFGGEGPIIIGGVKIPYEQGLIAHSDGDVALHALSDALLGAIAAGDIGRHFPDTDDKWKGADSRELLKDVYRRVKAQGYVLGNADVTIIAQAPKMAPYIQAMCAAIAEDLETDLGNINVKATTTEKLGFTGRKEGIACEAVVLLRKA | not soluble |
| MGSDKIHHHHHHMKLRKQLAQQIVTSIKDVCQQDINFINTKGIIFASTNPKRVGEFHEIGLKVAQTGQMIEVTDQESYFGTQAGINIPFYYNCELLATIGISGNPNQVGKYALLAQKMTRLILKEHELDYLDFGRKNEASIVLHHLVEGRELDYYYLNQFLNQYHLSEKTDYRLLTFEINSQKQKLLLSQSEMSLLNFFDKLDTAIYTFNYPNQYWLLLSDHMFDYYYPNILSKFECEKGLYKVGIGQKSSLSLLKRSYETSILALKALKGQQKVNLVDDLDLELLLTSIDSNIKQYVLNKALVNLSENDKILLNSYFKHNLSLKECSQELFIHKNTVQYRLNKIYESTQLNPRNFKDATLLYLALKSEDINLHKL | not soluble |
| MGSDKIHHHHHHMEKEIAIITLHGMGDYKPNYFEALKNQLEKKLGTKWDKIAFEPVQYQPILQQNQIKIWQRMNSYPLDGSILRRFLLFGFSDAGSLEYSARSKVSVQYIEVQKEIMQALDKLYVELGNNDKPVIIIAQSLGCQVISNYIWDAKHDSGIFNGLEPDASAQLKSFRRLNSCVHLLTTGCNIPMFVAGLNPIEAIQKPNNEFTWFNYYDRDDVLGWPLSPLSDSYGALVKDHEINAGGIFSSWNPWSHGQYWTDKDVLNSLIDRIRRYI | not soluble |
| MPTTVNDLLRTYPADLGGVDREAMARCIEECLRCAQACTACADACLSEPTVADLTKCIRTDMDCADVCTATAAVLSRHTGYDANVTRAVLQACATVCAACGDECARHAGMHEHCRVCAEACRSCEQACQELLAGLGLEHHHHHH | not soluble |
| MGEKIMKSMEIRSSEITTSGAGTLTGYVVRWDKLSELLWGEFYEKFQRGAFTEWLAAGNDVRGLYEHDHSMLLGRTRSGTLKLEEDETGLRFELTPPDTSTGRDVIELVKRGDISGMSFGFRSRKDVWDTTTDPCVRTVLVAELYEITVTSVPAYPDSGVELARRSLYEQHPEKMPRADNRRWWADLAGV | not soluble |
| MLQVLGRLINILFPLLRFILGIWWEKLRGKDPTVSRAKAIQLRELLTNLGPTYIKVGQALSTRPDLVPPVFLDELTTLQDQLPSFPNEVAYRFIEEELGAPAEEIYAELEHHHHHH | not soluble |
| MVSSSVARGLEDAGLKRFVPAFSGVSDQAFLGLMMSDYASYGVVELEDKQRLFRLIKSIAASVKSSDAPAPALEKPNALIDLDENDGDLLADAGVNFQLSPLANQNPKAPVPSGGGGVPPSEGEDPPKIRVVVRKRPISKKERERGDDDVVDVLAKNNTVVVNEEKVKVDLTKYLEKHAFKFDESLDENVSNEAVYQLTVGPLVRTLFRNGRASCFAYGQTGSGKTYTMSPLPIRASADIFTFMAQQQYRDISLCVSCFEIYGNKVFDLLNARKKLNILEDGKKKVVVVGLKEFGVDDVDGVKALIEESAKNRSTGSTAANADSSRSHSIMQFALKRAAPAPAGGFRRGEDAPEPRVVGKISFIDLAGSERGADTFDNNRQTRLEGAEINKSLLALKECIRALDSDARHVPFRGSKLTAVLRDSFVGDQARTVMIANISPCSSSVEHTLNTLRYADRVKELRKDKADRTPGGVTPGDDAYYAAVARAAGPGQAAAPAPERERERADLQRERDRERASDRYPSPPRQQAGAFAGGGGGGAGADGEGSAAALAERHDELMDSILLEEENLVAFHRAKLEEDMETMRQEMALLQEVDKPGSEIDHYVEQMSALLNIKRQGIQELQAKLDTFKAKLREEEALSRTVHKIRT | not soluble |
| SLIRMIRKFKVKGLRSPSLLIDMILNDTEEGILVVETDGEEQIKDIEKLLKKYNLKYEVDGNVVKIYVGEIKADKTINVVGATCPGPIMMVSDMLSKMKNGEILEIICGKNSLTDLTEGLKGMGNEIIKVEDKGDGTYRILVKKGEKKEEKAAVTKIDELFIINTTGTGNAEKAYATFMMADVALKMNLKPTIFLMMDGASLALKGECDRVKHPAFPKLGDLVRDILSKGVKIYVCELSAEFRGINEKNLEEGFEIAGAPTFLNYLSKPNVRPVWL | soluble |
| MDRNLVQKGDAPPSKRSDPGTEFCVDIVVKGRKTEVPERFRKHVAEKLKLEKIQKLDGKVISLDVEVSKEPNPRQADRCDRVEITLRSRGPVIRAEAAASDPYAALDLAAEKLGARLRKQHDKRFSRRGARRISAAEVADHVPGAATLNGNGDVVPTEKQDGVPTKKIGSLEVQGDGPLVVREKTHVAAPMSLDQALYEMELVGHDFYLFVDSETKEPSVVYRRHAYDYGVIHLTTDTMVTQAHAPDAGDALGGLEHHHHHH | not soluble |
| MQHLTERMTQIAKLLNSSANNPDIDIPDFLTEIKDYSEFSVTDENGTYLHWDKFRRIHTEDTRMKWRAVKESRKKIQKPIDFPFEHQFWFCIPDSLQARLHLIDKSCGSSIGTSSLGGFGRSEQNRFLLKSLIMEEAITSAQLEGAATTRKVAKDMLKSQRKPKTKDEIMIVNNYHLMKKAVELKNTPLSVEMILDLHRIATSNAIENKAEPGQFRQDDEIFIADINGNSLYQPPPHGQVHTLMEEVCAFANNTYDGVENPFIHPVVQAIILHFLIGYIHPFGDGNGRTARALFYWFMLKNGYWLFEYISISRLLKNAPAQYAKSYLYAETDDLDLTYFIYYQCDIIKRAVADLEHYISDKQKHQQEFKAAIAQYTEKIGKLNQRQIGILQKAVEESGKIFTAQEIANQYGISLNTARSDLSKLGEYRFLVPFKSGNALEYVAPQDLLERLEKK | not soluble |
| MAEPKWPSSAKTLPFKFMKEARNPCTRAQKLCSTHRRAAAPPSFSVHLTQKSENSSSEESDHQFASPTSPRPSSSDSFGPSAAPSTSLSPPFLSPSYSMDYIIEAMTSSSSTSPVPPPVSASRPVAPVVARVEGLRAVPVGHRRQHSSPGHLQQFQQELHARHHHANITRLNKKRRNTDTGYDPEARPPKFKHRSPLDEETILVSKTFAIPKYRKGALPAAAAAVVRNEALMDSSDSSDSQSTVKSLDGWRTRTSRSIMTTPEAFSRVRHISITFGEQQHDIDTDHSNQHFGSPSSLHSSLPRAFSPPHKISKARRRQLAVTTSLSETSAFPIPSSLKARSRMSSMSSTQADDEHPISMQNMRNIALGILVPIKQRFFLMQHIPLIEAEMSRFESRVVTAALHPSTFLQNISKSWEELTETVCQLHNAPRLRHPYWLALNEKCHLDGRTLATEFCEQLAYLVRRYDRKEAGYFLSNLVTALLMHHMSWVASVASPPLHNADSKDQIDENSLFGMMSSGAPTVGYNALMAQYLEISGACGNMRSAKICVVGEDLEVLASVCSVLSFFIRCSAVQHVDNDKMWEVPTEQPFSPCDVSNSPSTSCAHQHQQQQQLKNGYQHPEETSSVAMMRRLRNNNQMDTSSTPSTSTAAALLDADVEMVVQTTTEITSTTTTTPRHHHLHHLHSVTIDRLDFPCCPTIADDADMWVPQRPNSEGLGRSMFAGPLNNYCSHFVLSAVQKTDTNMPEVYSRMFDEVRCTDFPCHRSATATPSQSTSSMCDPAMNPENVLIIADIEQLTVKVLSTEGSDEVTSPSESIVAMLEQFVGIHNAVPANAEFLVGIIEDSLAHIVGKSLTLVELVRSDQTVRIQGSERAKKSKILAKIEILLAVCPEIGNFSKFEFPSYRALK | not soluble |
| MMRVKFNGKELDTDFKTSLEFFENISKNENDVWIINGFATKENIALNENDELFCIEKNTLPPKDALDAMMRARHTPKLHDKLKNGRVAVCGLGGLGSHIAINLARSGVGYLKLIDFDVIEPSNLNRQAYRVSDLGKFKTEALKEQISEINPYISVEICTLKIDEDNLESLFKDIDIVCEAFDSAIAKAMIAQNFHRFYKDGILICASGLAGYGDSNSIQTRKIAKNFYVCGDLVNGAKLGNGLMAPRVNICAGHQSNLVLELLANKELEHHHHHH | soluble |
| MGSDKIHHHHHHMIRNLTPSDFAQVISLGEQVHGANYLDLDTLKHYYQLGIKDGINAHFVAEQAGEIIGFRLTFTANQWTLDEWCSPALWGVEIDKVCYFKSNTLAEKARGQGIGGDLLAQSIAAVKAQGAKAGVSHLWKQSPHNAAVRYFTKAGGRLIKEHPGRWNQANDGSDYLCVLCGNDCHCTACEMLINF | not soluble |
| METNALDVNKQSWDQAAPRFFARNPLPEYGPLAPSEEELHLFGDVDRLKVLEIGCGSGHSLKYLDEKQAGELWGIDLSTKQIEAAQTVLKDSKAPVTLFESPMEVNPGLPTDYFDIVFSIYALGWTTNLTKTLENVYRYLKPGGSFIFSWEHPMYNRVRQHQHGLTVDKSYHEEGAYAHEAWSSPAIMQQYRLSTYLNHLIDHGFKVERVIEDVCLADAQKHTNGWYGYEKAQMIPTTLIIKCLKQLEHHHHHH | not soluble |
| MSLPGFEISAQFRFLLSVTALLVREEFGRAPSLGQTQSLLQNGFSSAVVEKVNQNLVSHLNVLDGLQPFMGRPRLHPEGPKDASRRIGPGDQEVKKLSPAMPSEQGEDYWNLLVEFPDSLSISEATLKIVTYHYFSMAGNNKFDGDKTRMGAPGIRFPGKGYAATEHIWIREGSSLLRSLLTSLPTSWVKGEGLPAWADRTAQKSRTGQQQFHALWEATWSSNTVVSYWEDGYLTGVRVGGIPPAWWPDIPNTKEGEKALKLWWDQRNEKDPLYFYLKNKKGEPKAQRIDFGRDGIDLAVEWAAEAKMMDLVEKTYKNVLPVDSYPTVDGDDEGIDKYQLVFFRHQVEGTASSPSIRASEVFLADRSVWAFDLSCDEQLRLRDNAQLVRDVYITLLGVFRRKSAADASREVATGWGAAVLDSLAVSQSDASDAYWRGVTDVYQKYLADLRVGEEITEELYRGIRSAALEAYDEVTAPYLAQYANEIYYVRASLVRSVNSKINTARDEGIGRIKEESNE | not soluble |
